Results taken from patent publication US9359408B2, “Fluorinated protein-based polymeric carriers” (New York University, priority 2007, dated 2016).
“Also recorded” adds a separate entry of the source.

Assays:
[1] = Inverse temperature transition (Tt) by UV/vis absorbance at 350 nm; assay type: physicochemical; conditions: 4 μM protein in 10 mM phosphate buffer, pH 8.0, heated 10 to 65° C.
Procedure: UV/Vis Spectroscopy. UV/vis spectroscopy was performed on a Cary 100 UV/vis spectrometer (Agilent) to determine the inverse temperature transition (Tt) of 4 μM protein in 10 mM phosphate buffer, pH 8.0. The absorbance at 350 nm was measured as each protein sample was heated from 10 to 65° C., at a heating rate of 0.5° C./min.
Temperature-Dependent Supramolecular Assembly. The effect of temperature on the supramolecular assembly of the proteins was examined via absorption at 350 nm. The inverse temperature transition (Tt) was determined via temperature-dependent absorption (FIG. 3, insets). The Tt values for all fluorinated block polymers were different, affirming the significance of block orientation and number. […] In comparison to the wt proteins, fluorination appeared to depress the Tt of CE protein from 36 to 28° C.

[2] = Microrheology of protein solutions (bead tracking, G′/G″); assay type: physicochemical
Procedure: Microrheology. To assess the mechanical properties of all proteins, microrheology was performed using an inverted Leica DM-138 IRB microscope with a 20× objective lens at 22 and 42° C., maintained by a Lincum temperature-controlled cell. […] A total of 2 μL of 2 wt % fluorescent-amidated polystyrene beads (1.0 μm) was added to 10 μL of protein solution. Deionized water, 2 wt % beads, was measured as a control. Brownian motion of the beads was observed by Peltier-cooled video camera (QiCam) and digitally recorded. Mean square displacement (MSD) measurements of the beads were determined by IDL software (Research Systems, Inc.). Using the comprehensive Stokes-Einstein equation, the elastic modulus (G′) and viscous modulus (G″) were determined as a function of angular frequency (ω).
Mechanical Properties. Bulk rheological properties of the protein polymers were evaluated by microrheology (FIG. 4).
Upon fluorination, more depressed concentration-dependent percolation points for the protein polymers were observed. […] Two types of modifications to the rheological behavior are observed from EC and CE sets of constructs.

B1: pFF-EC: Elastin-COMPcc diblock protein polymer with phenylalanine residues replaced by p-fluorophenylalanine (SEQ ID NO: 15) (protein)
chain: MRGSHHHHHHGSKPIAASAVPGVGVPGVGVPGFGVPGVGVPGVGVPGVGVPGVGVPGFGVPGVGVPGVGVPGVGVPGVGVPGFGVPGVGVPGVGVPGVGVPGVGVPGFGVPGVGVPGVGVPGVGVPGVGVPGFGVPGVGVPGVGVPLEGSELAATATATATATATAACGDLAPQMLRELQETNAALQDVRELLRQQVKEITFLKNTVMESDASGLQAATATATATATATAVDLQPS
modifications: Phe replaced by p-fluorophenylalanine
- inverse temperature transition (Tt) [1]: 25 °C
- rheological character ([2]; 1.25 mg mL^−1, 22° C.): viscoelastic behavior
- rheological character ([2]; 2.5 mg mL^−1, 22° C.): viscoelastic behavior
- rheological character ([2]; 2.5 mg mL^−1, 42° C.): more elastic character

B2: wt-EC: non-fluorinated Elastin-COMPcc block polymer (SEQ ID NO: 15) (protein)
chain: MRGSHHHHHHGSKPIAASAVPGVGVPGVGVPGFGVPGVGVPGVGVPGVGVPGVGVPGFGVPGVGVPGVGVPGVGVPGVGVPGFGVPGVGVPGVGVPGVGVPGVGVPGFGVPGVGVPGVGVPGVGVPGVGVPGFGVPGVGVPGVGVPLEGSELAATATATATATATAACGDLAPQMLRELQETNAALQDVRELLRQQVKEITFLKNTVMESDASGLQAATATATATATATAVDLQPS
- rheological character ([2]; 1.25 mg mL^−1, 22° C.): predominantly viscous
- rheological character ([2]; 2.5 mg mL^−1, 42° C.): more elastic character
- rheological character ([2]; 10 mg mL^−1): elastic network
- rheological character ([2]; concentrations below 2.5 mg mL^−1): predominantly viscous

B3: wt-CE: non-fluorinated COMPcc-Elastin block polymer (SEQ ID NO: 16) (protein)
chain: MRGSHHHHHHGSACELAATATATATATATAACGDLAPQMLRELQETNAALQDVRELLRQQVKEITFLKNTVMESDASGLQAATATATATATATAVDKPIAASAVPGVGVPGVGVPGFGVPGVGVPGVGVPGVGVPGVGVPGFGVPGVGVPGVGVPGVGVPGVGVPGFGVPGVGVPGVGVPGVGVPGVGVPGFGVPGVGVPGVGVPGVGVPGVGVPGFGVPGVGVPGVGVPLEGSGTGAKL
- inverse temperature transition (Tt) [1]: 36 °C
- rheological character ([2]; 1.25 mg mL^−1, 22° C.): viscous/viscoelastic
- rheological character ([2]; 2.5 mg mL^−1, 22° C.): viscous/viscoelastic
- rheological character ([2]; 2.5 mg mL^−1, 42° C.): viscoelastic character
- rheological character ([2]; up to 10 mg mL^−1): predominantly viscous

B4: pFF-CE: COMPcc-Elastin diblock protein polymer with phenylalanine residues replaced by p-fluorophenylalanine (SEQ ID NO: 23) (protein)
chain: MRGSHHHHHHGSACELAATATATATATATAACGDLAPQMLRELQETNAALQDVRELLRQQVKEITFLKNTVMESDASGLQAATATATATATATAVDKPIAASAVPGVGVPGVGVPGFGVPGVGVPGVGVPGVGVPGVGVPGFGVPGVGVPGVGVPGVGVPGVGVPGFGVPGVGVPGVGVPGVGVPGVGVPGFGVPGVGVPGVGVPGVGVPGVGVPGFGVPGVGVPGVGVPLEGSGTGAKLN
modifications: Phe replaced by p-fluorophenylalanine
- inverse temperature transition (Tt) [1]: 28 °C
- rheological character ([2]; 1.25 mg mL^−1, 22° C.): viscous/viscoelastic
- rheological character ([2]; 2.5 mg mL^−1, 22° C.): viscous/viscoelastic
- rheological character ([2]; 2.5 mg mL^−1, 42° C.): elastic behavior; also recorded: dominant elastic modulus

B5: pFF-ECE: Elastin-COMPcc-Elastin triblock protein polymer with phenylalanine residues replaced by p-fluorophenylalanine (SEQ ID NO: 17) (protein)
chain: MRGSHHHHHHGSKPIAASAVPGVGVPGVGVPGFGVPGVGVPGVGVPGVGVPGVGVPGFGVPGVGVPGVGVPGVGVPGVGVPGFGVPGVGVPGVGVPGVGVPGVGVPGFGVPGVGVPGVGVPGVGVPGVGVPGFGVPGVGVPGVGVPLEGSELAATATATATATATAACGDLAPQMLRELQETNAALQDVRELLRQQVKEITFLKNTVMESDASGLQAATATATATATATAVDKPIAASAVPGVGVPGVGVPGFGVPGVGVPGVGVPGVGVPGVGVPGFGVPGVGVPGVGVPGVGVPGVGVPGFGVPGVGVPGVGVPGVGVPGVGVPGFGVPGVGVPGVGVPGVGVPGVGVPGFGVPGVGVPGVGVPLEGSGTGAKLN
modifications: Phe replaced by p-fluorophenylalanine
- inverse temperature transition (Tt) [1]: 32 °C
- rheological character ([2]; 1.25 mg mL^−1, 42° C.): elastic network formation

B6: wt-ECE: non-fluorinated Elastin-COMPcc-Elastin block polymer (SEQ ID NO: 17) (protein)
chain: MRGSHHHHHHGSKPIAASAVPGVGVPGVGVPGFGVPGVGVPGVGVPGVGVPGVGVPGFGVPGVGVPGVGVPGVGVPGVGVPGFGVPGVGVPGVGVPGVGVPGVGVPGFGVPGVGVPGVGVPGVGVPGVGVPGFGVPGVGVPGVGVPLEGSELAATATATATATATAACGDLAPQMLRELQETNAALQDVRELLRQQVKEITFLKNTVMESDASGLQAATATATATATATAVDKPIAASAVPGVGVPGVGVPGFGVPGVGVPGVGVPGVGVPGVGVPGFGVPGVGVPGVGVPGVGVPGVGVPGFGVPGVGVPGVGVPGVGVPGVGVPGFGVPGVGVPGVGVPGVGVPGVGVPGFGVPGVGVPGVGVPLEGSGTGAKLN
- rheological character ([2]; 1.25 mg mL^−1, 42° C.): completely viscous
- rheological character ([2]; up to 10 mg mL^−1): viscoelastic
